# Measurements published in publication PMC12811900 (Nature microbiology, 2025).
# B1: Sth enolase, untagged, expressed in E. coli (enzyme, Streptococcus thermophilus DGCC7710)
# chain: MSIITDVYAREVLDSRGNPTLEVEVYTESGAFGRGMVPSGASTGEHEAVELRDGDKARYGGLGTQKAVDNVNNVIAEHIIGFDVRDQQGIDRAMIALDGTPNKGKLGANAILGVSIAVARAAADYLEVPLYSYLGGFNTKVLPTPMMNIINGGSHSDAPIAFQEFMIVPAGAPTFKEALRWGAEIFHALKKILKERGLETAVGDEGGFAPRFNGTEDGVETIIKAIEAAGYVPGKDVFIGLDCASSEFYDAERKVYDYTKFEGEGAAVRTAAEQIDYLEELVNKYPIITIEDGMDENDWDGWKALTERLGGKVQLVGDDFFVTNTAYLEKGIAEHAANSILIKVNQIGTLTETFDAIEMAKEAGYTAVVSHRSGETEDSTIADIAVATNAGQIKTGSLSRTDRIAKYNQLLRIEDQLGEVAEYRGLKSFYNLKK
# Target: the molecule itself
# Assay: cryo-EM structure
protein,measurement,value
B1,stoichiometry N,8
